Data: publication PMC2172828 (The Journal of Cell Biology, 2003)

Target: T1, GST–Cdc15p(1–405) (S. pombe, UniProt Q09822 1-405)
T1 sequence (looked up): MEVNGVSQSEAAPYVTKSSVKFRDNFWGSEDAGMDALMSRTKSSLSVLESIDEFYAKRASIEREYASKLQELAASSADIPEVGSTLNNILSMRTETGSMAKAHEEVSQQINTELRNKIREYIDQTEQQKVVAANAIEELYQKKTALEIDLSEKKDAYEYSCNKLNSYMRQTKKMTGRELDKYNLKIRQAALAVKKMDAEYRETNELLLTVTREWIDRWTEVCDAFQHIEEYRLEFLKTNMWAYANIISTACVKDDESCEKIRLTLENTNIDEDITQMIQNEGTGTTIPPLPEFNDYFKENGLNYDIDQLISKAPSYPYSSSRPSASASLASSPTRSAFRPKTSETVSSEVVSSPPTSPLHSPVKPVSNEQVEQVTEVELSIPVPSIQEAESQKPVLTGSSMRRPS
Assay: pull-down

B1: MBP–Myo1p(727–1041) (domain or fragment, S. pombe, UniProt Q9Y7Z8 727-1041, looked up)
chain: ATRIQRAWRSYVRRRSEAAACIQKLWNRNKVNMELERVRNEGTKLLQGKKQRRRYSILGSRKFYGDYLSASKPNGTLWNTCGLSQNDHVIFSMRCEVLVHKLGRTSKPSPRQLVLTKKNLYLVITKIVDQKLTQQVEKKFAVSSIDSVGLTNLQDDWVAIRNKSSQNGDMFLRCFFKTEFITTLKRINRNIQVIVGPTIQYCRKPGKVQTVKTAKDETTKDYDYYKSGTIHVGTGLPPTSKSKPFPRLATGGSTAAARGPRPVVQNKPAATKPVSMPAAKSKPAPMANPVSTAQQTQNRPPAPAMQARPNTTQAA
B1: binds.
